Measured values reported in PMC5016661 (The Journal of Biological Chemistry, 2016).

Target: the molecule itself
Experiment: cryo-EM structure; FraC (5 uM) incubated with DOPC LUVs at a protein/lipid ratio of 1:160 for 30 min; vitrified; 1,562 particles; oligomer bound to the vesicles (non-lytic, prepore)

B1: fragaceatoxin C (natural protein)
chain: ADVAGAVIDGAGLGFDVLKTVLEALGNVKRKIAVGIDNESGKTWTAMNTYFRSGTSDIVLPHKVAHGKALLYNGQKNRGPVATGVVGVIAYSMSDGNTLAVLFSVPYDYNWYSNWWNVRVYKGQKRADQRMYEELYYHRSPFRGDNGWHSRGLGYGLKSRGFMNSSGHAILEIHVTKA
notes: also called FraC; WT FraC; source: E. coli BL21 (DE3), purified (ion-exchange and size-exclusion chromatography)
For B1, the “stoichiometry N” value was 8.
